Reference: patent US20110165652A1, “COMPOSITIONS, METHODS AND SYSTEMS FOR SINGLE MOLECULE SEQUENCING” (LIFE TECHNOLOGIES CORPORATION, priority 2008, published 2011)

Tested on: dATP-1-ROX
Assay: Primer extension by various polymerases with dATP-1-ROX or natural dATP
Format: biochemical
Conditions: dATP-1-ROX vs natural dATP, optimal temperature of each polymerase
Procedure: FIG. 6 depicts the results of experiments to assess the nucleotide incorporation efficiency of various DNA mutated and non-mutated polymerases (Sequenase; Thermo-Sequenase; wild-type Taq from Promega; HIV reverse transcriptase; and a mutant Taq polymerase comprising the mutation F647C) using both natural (unlabeled) dATP as well as the gamma-modified nucleotide dATP-1-Rox. Each reaction was conducted at the individual polymerase's optimal temperature with equimolar concentrations of enzymatically cleared gamma-labeled nucleotides and units of polymerase. […] Primer extension reactions were performed in the presence of the nucleotide dATP-1-ROX or natural dATP. The ‘Neg Control’ is a control lacking both polymerase and nucleotide. The extension products were size separated using denaturing gel electrophoresis, and visualized on a Bio-Rad fx Imager. Incorporation of the gamma-labeled nucleotide results in the production of a resolvable extension duplex that indicates incorporation of a single dATP. The non-extended primer is the lower band; extension products are more slowly migrating. […] FIG. 81 is a solid ribbon diagram generated in DS Viewer Pro of Taq DNA Polymerase.

B1: VTaq647C: engineered mutant Taq polymerase comprising the mutation F647C, SEQ. ID: 7 (protein, listed as Thermus aquaticus)
chain: ALEEAPWPPPEGAFVGFVLSRKEPMWADLLALAAARGGRVHRAPEPYKALRDLKEARGLLAKDLSVLALREGLGLPPGDDPMLLAYLLDPSNTTPEGVARRYGGEWTEEAGERAALSERLFANLWGRLEGEERLLWLYREVERPLSAVLAHMEATGVRLDVAYLRALSLEVAEEIARLEAEVFRLAGHPFNLNSRDQLERVLFDELGLPAIGKTEKTGKRSTSAAVLEALREAHPIVEKILQYRELTKLKSTYIDPLPDLIHPRTGRLHTRFNQTATATGRLSSSDPNLQNIPVRTPLGQRIRRAFIAEEGWLLVALDYSQIELRVLAHLSGDENLIRVFQEGRDIHTETASWMCGVPREAVDPLMRRAAKTINFGVLYGMSAHRLSQELAIPYEEAQAFIERYFQSFPKVRAWIEKTLEEGRRRGYVETLFGRRRYVPDLEARVKSVREAAERMAFNMPVQGTAADLMKLAMVKLFPRLEEMGARMLLQVHDELVLEAPKERAEAVARLAKEVMEGVYPLAVPLEVEVGIGEDWLSAKE
  incorporation of gamma-labeled nucleotide: significantly improved incorporation
